The text below walks through data of patent publication US20120100074A1 (Teva, published 2012).

Test [1] concerns the target T1, LIGHT expressed on the cell surface (LIGHT transfected cells; activated T-cells) (UniProt O43557 1-240, limits assumed).
T1 construct: whole, on cells
The test is described as follows: flow cytometry on PMA/ionomycin activated Th1, Th17 and Th2 cells, biotin labeled antibody, streptavidin-PE. On the procedure: FIG. 10B illustrates binding of humanized 5E10 antibody to Th1, Th17 and Th2 activated T-cells compared to controls. Polarized T-cells were activated with PMA/Ionomycin for 24 hr. Biotin labeled LIGHT antibody or control antibody was incubated with cells for 40 minutes at room temperature. After washing twice with PBS, the antibody binding to LIGHT expressed on activated T-cells was determined by flow cytometry using strepavidin conjugated to PE. Dotted lines on figure indicates humanized LIGHT antibody binding. Solid fill indicates control antibody binding.
This example describes an assay protocol to determine LIGHT antibody binding to LIGHT expressed on surface of activated T-cells by Flow cytometry. Polarized Th1, Th2 and Th17 cells were activated with 50 ng/mL PMA and 0.5 μg/mL lonomycin overnight at 37° C. One million activated T-cells were transferred to 5 mL FACS tubes and centrifuged at 1200 rpm for 5 minutes. The cellet pellet was resuspended in FACS staining buffer and incubated with anti-LIGHT or control antibodies at room temperature for 40 minutes. After washing twice with 2 mL PBS, the cells were incubated with PE-conjugated secondary reagents for 1 hour. The cells were washed 3 times with 2 mL PBS and resuspended in 0.5 mL PBS and analyzed by flow cytometry.

Test [2] concerns the target T2, LIGHT (TNFSF14), recombinant soluble protein (human, UniProt O43557 83-240, limits assumed).
T2 construct: The immunogen was the extracellular domain fragment (Leu Ile Glu to Phe Met Val of AF036581); also called TL5; LIGHT/TL5
The test is described as follows: competition ELISA: inhibition of LIGHT-biotin binding to LTbR-Fc captured by Protein A.

Test [3] has as its target T1, LIGHT expressed on the cell surface …. The test is described as follows: flow cytometry on LIGHT transfected cells against vector control cells. For orientation: Flow cytometry measures light scatter and fluorescence of single cells or particles in a stream.
Test [4] addresses T2, LIGHT (TNFSF14), recombinant soluble …. The test is described as follows: competition ELISA: inhibition of LIGHT-biotin binding to DcR3-Fc captured by Protein A. In general terms: In an ELISA, binding on a coated surface is turned into a signal by an enzyme label.
Test [5] has the same target. The test is described as follows: BiaCore (SPR). In general terms: In SPR one partner is held on a chip, and binding of the other changes the refractive index at the surface.
The target is the same in test [6]. The test is described as follows: direct binding ELISA on LIGHT.
Test [7] has the same target. Briefly: competition ELISA: inhibition of LIGHT-biotin binding to HVEM-Fc captured by Protein A.

T2 sequence (O43557 83-240 limits assumed): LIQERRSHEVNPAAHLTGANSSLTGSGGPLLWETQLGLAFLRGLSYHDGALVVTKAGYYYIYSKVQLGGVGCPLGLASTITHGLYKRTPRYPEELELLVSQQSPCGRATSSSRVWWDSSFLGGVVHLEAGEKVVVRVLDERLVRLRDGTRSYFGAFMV
T1 sequence (O43557 whole entry): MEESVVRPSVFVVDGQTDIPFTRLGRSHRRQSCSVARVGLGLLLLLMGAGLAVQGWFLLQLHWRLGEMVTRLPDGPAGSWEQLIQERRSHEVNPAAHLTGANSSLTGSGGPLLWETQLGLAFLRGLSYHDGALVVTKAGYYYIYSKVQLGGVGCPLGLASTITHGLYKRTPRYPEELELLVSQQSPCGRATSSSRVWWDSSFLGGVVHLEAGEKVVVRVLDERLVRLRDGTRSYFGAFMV

B1: humanized 5E10 antibody (antibody, V domains shown)
VH: QVQLVQSGAEVKKPGASVKVSCKASGYTFTSYYIHWVRQAPGQRLEWMGWIFPGSDITKYNEKFKGRVTITRDTSASTAYMELSSLRSEDTAVYYCAREDYGISTYSAMDFWGQGTLVTVSS
VL: DIQLTQSPSFLSASVGDRVTITCKASQDVGTAVAWYQQKPGKAPKLLIYWASTRHTGVPSRFSGSGSGTEFTLTISSLQPEDFATYYCQQYSSYPLTFGQGTKVEIKR
notes: also called h5E10
For B1, in test [1], the binding result is on record as “binds”.

B2: murine anti-LIGHT monoclonal antibody 10D11 (antibody, V domains shown)
VH: EIQLQQSGPDLVKPGASVKVSCKASGYSFTDYYIYWVRQSHGKSLEWIGYIDPYNGGTKYNQKFKDTASLTVDKSSSTAFMHLNSLTSEDSAVYYCARTSGSSWFPYWGQGTLVTVSA
VL: DIVLTQSPATLSVTPGDSVSLSCRASQSISNNLHWYQQKSHESPRLLIKYTYQSISGIPSRFSGSGSGTDFTLTINSVETEDFGMYFCQQSNRWPLTFGAGTKLELKR
notes: Mouse hybridoma monoclonal antibody; also called m10D11; mD10D11
Regarding B2, the IC50 (in general, the midpoint of a concentration-inhibition curve) in test [2] stood at 1.2 pM; in test [4] it was 140 pM; in test [7], 80 pM. Further, the “MFC ratio (mean fluorescence on LIGHT transfected cells to vector control cells)” value in test [3] was found to be 13.1 ratio. In test [5], the Kd – broadly, a measure of binding affinity in units of concentration – was determined as 45 pM. Also, the EC50 (usually the concentration at which the effect is half-maximal) in test [6] worked out at 160 pM.
